Laboratory results: publication PMC11667970, “Mycobacterium tuberculosis Mce3R TetR-like Repressor Forms an Asymmetric Four-Helix Bundle and Binds a Nonpalindrome Sequence†” (ACS Chemical Biology, 2024)

Key:
Mce3R [1] = target: T1, Mce3R (Mycobacterium tuberculosis H37Rv, UniProt P95251 1-406); assay: EMSA; conditions: protein: recombinant; tags: MBP-His6 N-terminal, removed with TEV; chain copies: 2; label: 5'-Cy3; blunt
T1 sequence: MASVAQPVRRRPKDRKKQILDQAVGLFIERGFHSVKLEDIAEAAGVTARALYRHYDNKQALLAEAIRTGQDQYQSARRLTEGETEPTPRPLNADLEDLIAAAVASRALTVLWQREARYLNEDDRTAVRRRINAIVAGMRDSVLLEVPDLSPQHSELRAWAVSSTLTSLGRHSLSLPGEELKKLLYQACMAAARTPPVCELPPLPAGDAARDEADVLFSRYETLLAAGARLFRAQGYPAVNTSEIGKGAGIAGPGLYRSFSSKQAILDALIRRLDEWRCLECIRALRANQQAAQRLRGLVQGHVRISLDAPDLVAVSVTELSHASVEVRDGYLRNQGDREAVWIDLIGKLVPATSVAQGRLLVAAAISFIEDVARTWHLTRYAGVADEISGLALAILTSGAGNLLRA

Mce3R [2] = target: T1, Mce3R; assay: EMSA; up to 128 nM Mce3R, 1 ug poly(dI-dC); conditions: protein: recombinant; tags: MBP-His6 N-terminal, removed with TEV; chain copies: 2; label: 5'-Cy3 (forward strand); blunt
Mce3R [3] = target: T1, Mce3R; assay: EMSA; 10 nM DNA, 0-128 nM protein; conditions: protein: recombinant; tags: MBP-His6 N-terminal, removed with TEV; chain copies: 2; label: 5'-Cy3 (forward strand); blunt
SEC = target: the molecule itself; assay: SEC

B1: Probe C (dsDNA)
DNA 1: TAGCCAATATATGCCAGTTTGCATTGCTATTTACCGATCAGTTGTCCAAGCAATCGCGTATTGGCTATGGACATCAGCGGTTCTGCCGC
DNA 2: GCGGCAGAACCGCTGATGTCCATAGCCAATACGCGATTGCTTGGACAACTGATCGGTAAATAGCAATGCAAACTGGCATATATTGGCTA
B1: binds (Mce3R [1]).

B2: Probe A' (dsDNA)
DNA 1: CCAGTGCGACCTAACCAAGGACCTACAGATTCTGTCCGTGAGAGAATCGTGTTGGCCTCAGAAGACGGTCGCAAGTTCTCTTTATGACCTGCTAAACTTGAGCCTATATTAGTTATCGCACCT
DNA 2: AGGTGCGATAACTAATATAGGCTCAAGTTTAGCAGGTCATAAAGAGAACTTGCGACCGTCTTCTGAGGCCAACACGATTCTCTCACGGACAGAATCTGTAGGTCCTTGGTTAGGTCGCACTGG
B2: no binding (Mce3R [2]).

B3: Probe A (dsDNA)
DNA 1: GCCCCGCGCTATAGGATACTAGCAAGATACATCATAGCCAATATATGCCAGTTTGCATTGCTATTTACCGATCAGTTGTCCAAGCAATCGCGTATTGGCTATGGACATCAGCGGTTCTGCCGC
DNA 2: GCGGCAGAACCGCTGATGTCCATAGCCAATACGCGATTGCTTGGACAACTGATCGGTAAATAGCAATGCAAACTGGCATATATTGGCTATGATGTATCTTGCTAGTATCCTATAGCGCGGGGC
Binder B3 has a Kd (Mce3R [3]) of 2.4 ± 0.7 nM.

B4: Probe A* (dsDNA)
DNA 1: CTACAAGTGCTGGAGGTCAAATCCCGCATCAACATAGCCAATATATGCCAGTTTGCATTGCTATTTACCGATCAGTTGTCCAAGCAATCGCGTATTGGCTATGGACATCAGCGGTTCTGCCGC
DNA 2: GCGGCAGAACCGCTGATGTCCATAGCCAATACGCGATTGCTTGGACAACTGATCGGTAAATAGCAATGCAAACTGGCATATATTGGCTATGTTGATGCGGGATTTGACCTCCAGCACTTGTAG
In the case of B4, the Kd (Mce3R [3]) is reported as 59 ± 10 nM.

B5: Mce3R (Rv1963c), full-length TetR-like repressor of Mycobacterium tuberculosis (natural protein)
chain: MASVAQPVRRRPKDRKKQILDQAVGLFIERGFHSVKLEDIAEAAGVTARALYRHYDNKQALLAEAIRTGQDQYQSARRLTEGETEPTPRPLNADLEDLIAAAVASRALTVLWQREARYLNEDDRTAVRRRINAIVAGMRDSVLLEVPDLSPQHSELRAWAVSSTLTSLGRHSLSLPGEELKKLLYQACMAAARTPPVCELPPLPAGDAARDEADVLFSRYETLLAAGARLFRAQGYPAVNTSEIGKGAGIAGPGLYRSFSSKQAILDALIRRLDEWRCLECIRALRANQQAAQRLRGLVQGHVRISLDAPDLVAVSVTELSHASVEVRDGYLRNQGDREAVWIDLIGKLVPATSVAQGRLLVAAAISFIEDVARTWHLTRYAGVADEISGLALAILTSGAGNLLRA
notes: Mce3R (Rv1963c), Mycobacterium tuberculosis H37Rv, full length; calculated MW 44.3 kDa; also called M1M2 TFR; wild-type Mce3R; not shown: MBP, N-terminal, cleaved; His6, N-terminal, cleaved
In the case of B5, the “stoichiometry N” value (SEC) is reported as 2.
